Results: patent US10800847

Legend:
Experiment in all cases: Luminex, regular beads (#7), 1:4
[1] = target: HLA-Cw*1802 (Cw18) (human)
[2] = target: HLA-Cw*0702 (Cw7) (human)
[3] = target: HLA-Cw*0202 (Cw2) (human)
[4] = target: HLA-Cw*1203 (Cw12) (human)
[5] = target: HLA-Cw*1502 (Cw15) (human)
[6] = target: HLA-Cw*1701 (Cw17) (human)
[7] = target: HLA-Cw*0602 (Cw6) (human)
[8] = target: HLA-Cw*0304 (Cw10) (human)
[9] = target: HLA-Cw*1402 (Cw14) (human)
[10] = target: HLA-Cw*0102 (Cw1) (human)
[11] = target: HLA-Cw*0302 (Cw10) (human)

MFI [1]: 1550 MFI | MFI [2]: 1970 MFI | MFI [3]: 1280 MFI | MFI [4]: 985 MFI | MFI [5]: 778 MFI | MFI [6]: 1490 MFI | MFI [7]: 1560 MFI | MFI [8]: 844 MFI | MFI [9]: 991 MFI | MFI [10]: 998 MFI | MFI [11]: 1024 MFI
Substance: IVIg Sandoglobulin (Novartis, Basel, Switzerland) (antibody)
